From publication PMC3433420, “Comprehensive Binary Interaction Mapping of SH2 Domains via Fluorescence Polarization Reveals Novel Functional Diversification of ErbB Receptors” (PLoS ONE, 2012)
Values joined by “and” are separate entries in the source; they are usually repeats but may differ in a detail not shown here. Equal entries are not always repeated. Non-standard residues stand in square brackets, D forms with d. No end group written: not given here. pY = N[C@@H](Cc1ccc(OP(=O)(O)O)cc1)C(=O)O; Rhodamine = not defined here; rhodamine = not defined here

Columns and labels:
Settings in all cases: both partners purified
SRC SH2 domain = target: T1, SRC SH2 domain (human, UniProt P12931-1 151-248); test: fluorescence polarisation; saturation binding in solution: rhodamine peptide fixed at 10 nM, protein titrated 0.002-10 uM, 20 min at room temperature; assay buffer 20 mM HEPES, 100 mM KCl, 0.1% Tween-20, 5 mM DTT, pH 7.8; apparent KD
T1 construct: SRC, human; also called c-Src; source: bacterial expression, purified

BLK SH2 domain = target: T2, BLK SH2 domain (human, UniProt P51451 124-220); test: peptide or protein array; SH2/PTB proteins spotted on aldehyde slides, rhodamine peptide titrated in buffer B (20 mM HEPES, 100 mM KCl, 0.1% Tween-20, 5 mM DTT, pH 7.8), 1 h at room temperature; replicate assays
T2 construct: BLK, human; source: bacterial expression, purified

ABL2 SH2 domain = target: T3, ABL2 SH2 domain (human, UniProt P42684 173-263); test: as above
T3 construct: ABL2, human; source: bacterial expression, purified
T3 sequence (looked up): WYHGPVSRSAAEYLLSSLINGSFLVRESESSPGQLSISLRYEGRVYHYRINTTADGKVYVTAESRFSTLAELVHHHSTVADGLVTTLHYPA

SYK tandem SH2 domains = SYK tandem SH2 domains (human); test: as above
ITK SH2 domain = target: T4, ITK SH2 domain (human, UniProt Q08881 239-338); test: as above
T4 construct: ITK, human; source: bacterial expression, purified
T4 sequence (looked up): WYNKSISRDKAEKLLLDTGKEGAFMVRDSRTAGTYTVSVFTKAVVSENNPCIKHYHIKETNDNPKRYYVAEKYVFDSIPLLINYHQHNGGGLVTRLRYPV

SHC1 domain construct = target: T5, SHC1 domain construct (human); test: as above
T5 chain: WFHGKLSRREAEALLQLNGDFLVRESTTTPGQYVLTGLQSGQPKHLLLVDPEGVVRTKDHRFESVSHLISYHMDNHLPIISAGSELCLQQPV

LCK SH2 domain = target: T6, LCK SH2 domain (human, UniProt P06239 127-224); test: as above
T6 construct: LCK, human; source: bacterial expression, purified

BLNK SH2 domain = target: T7, BLNK SH2 domain (human, UniProt Q8WV28 346-453); test: as above
T7 construct: BLNK, human; source: bacterial expression, purified
T7 sequence (looked up): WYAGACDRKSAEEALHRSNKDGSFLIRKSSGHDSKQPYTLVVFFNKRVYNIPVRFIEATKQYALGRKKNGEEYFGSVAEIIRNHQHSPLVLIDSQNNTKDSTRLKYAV

SHF SH2 domain = target: T8, SHF SH2 domain (human, UniProt Q7M4L6 323-418); test: as above
T8 construct: SHF, human; source: bacterial expression, purified
T8 sequence (looked up): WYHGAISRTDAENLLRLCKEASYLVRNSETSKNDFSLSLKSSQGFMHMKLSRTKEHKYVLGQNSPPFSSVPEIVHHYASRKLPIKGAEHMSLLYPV

STAP1 SH2 domain = target: T9, STAP1 SH2 domain (human, UniProt Q9ULZ2 177-280); test: as above
T9 construct: STAP1, human; source: bacterial expression, purified
T9 sequence (looked up): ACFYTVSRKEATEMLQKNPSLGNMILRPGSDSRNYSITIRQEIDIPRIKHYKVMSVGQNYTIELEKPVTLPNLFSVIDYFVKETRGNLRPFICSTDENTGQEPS

YES1 SH2 domain = target: T10, YES1 SH2 domain (human, UniProt P07947 158-255); test: as above
T10 construct: YES1, human; source: bacterial expression, purified

SH2D3A SH2 domain = target: T11, SH2D3A SH2 domain (human, UniProt Q9BRG2 15-114); test: as above
T11 construct: SH2D3A, human; source: bacterial expression, purified

SUPT6H SH2 domain = target: T12, SUPT6H SH2 domain (human, UniProt Q7KZ85 1325-1431); test: as above
T12 construct: SUPT6H, human; source: bacterial expression, purified

GRAP2 SH2 domain = target: T13, GRAP2 SH2 domain (human, UniProt O75791 58-149); test: as above
T13 construct: GRAP2, human; source: bacterial expression, purified
T13 sequence (looked up): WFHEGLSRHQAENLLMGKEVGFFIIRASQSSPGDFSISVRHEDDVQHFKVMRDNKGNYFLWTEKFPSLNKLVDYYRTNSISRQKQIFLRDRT

TNS3 SH2 domain = target: T14, TNS3 SH2 domain (human, UniProt Q68CZ2 1172-1282); test: SPR; Biacore 3000; 6X His SH2 proteins held on a Ni-NTA chip, dye-free peptides in solution, equilibrium
T14 construct: TNS3, human; source: bacterial expression, purified
T14 sequence (looked up): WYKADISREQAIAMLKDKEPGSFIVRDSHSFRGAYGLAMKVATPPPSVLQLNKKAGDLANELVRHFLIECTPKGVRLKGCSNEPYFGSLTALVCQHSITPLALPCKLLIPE

[1] = target: T15, PIK3R3 C-terminal SH2 domain (human); test: as above
T15 construct: PIK3R3, human; source: bacterial expression, purified

[2] = target: T16, PIK3R1 N-terminal SH2 domain (human); test: as above
T16 construct: PIK3R1, human; source: bacterial expression, purified

VAV2 SH2 domain = target: T17, VAV2 SH2 domain (human, UniProt P52735 673-767); test: as above
T17 construct: VAV2, human; source: bacterial expression, purified
T17 sequence (looked up): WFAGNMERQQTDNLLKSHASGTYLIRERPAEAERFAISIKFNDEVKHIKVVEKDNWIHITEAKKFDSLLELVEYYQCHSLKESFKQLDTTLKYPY

[3] = target: T18, SYK C-terminal SH2 domain (human); test: as above
T18 construct: SYK, human; source: bacterial expression, purified

[4] = target: T19, PLCG1 C-terminal SH2 domain (human); test: as above
T19 construct: PLCG1, human; source: bacterial expression, purified
T19 sequence (P19174 whole entry, looked up): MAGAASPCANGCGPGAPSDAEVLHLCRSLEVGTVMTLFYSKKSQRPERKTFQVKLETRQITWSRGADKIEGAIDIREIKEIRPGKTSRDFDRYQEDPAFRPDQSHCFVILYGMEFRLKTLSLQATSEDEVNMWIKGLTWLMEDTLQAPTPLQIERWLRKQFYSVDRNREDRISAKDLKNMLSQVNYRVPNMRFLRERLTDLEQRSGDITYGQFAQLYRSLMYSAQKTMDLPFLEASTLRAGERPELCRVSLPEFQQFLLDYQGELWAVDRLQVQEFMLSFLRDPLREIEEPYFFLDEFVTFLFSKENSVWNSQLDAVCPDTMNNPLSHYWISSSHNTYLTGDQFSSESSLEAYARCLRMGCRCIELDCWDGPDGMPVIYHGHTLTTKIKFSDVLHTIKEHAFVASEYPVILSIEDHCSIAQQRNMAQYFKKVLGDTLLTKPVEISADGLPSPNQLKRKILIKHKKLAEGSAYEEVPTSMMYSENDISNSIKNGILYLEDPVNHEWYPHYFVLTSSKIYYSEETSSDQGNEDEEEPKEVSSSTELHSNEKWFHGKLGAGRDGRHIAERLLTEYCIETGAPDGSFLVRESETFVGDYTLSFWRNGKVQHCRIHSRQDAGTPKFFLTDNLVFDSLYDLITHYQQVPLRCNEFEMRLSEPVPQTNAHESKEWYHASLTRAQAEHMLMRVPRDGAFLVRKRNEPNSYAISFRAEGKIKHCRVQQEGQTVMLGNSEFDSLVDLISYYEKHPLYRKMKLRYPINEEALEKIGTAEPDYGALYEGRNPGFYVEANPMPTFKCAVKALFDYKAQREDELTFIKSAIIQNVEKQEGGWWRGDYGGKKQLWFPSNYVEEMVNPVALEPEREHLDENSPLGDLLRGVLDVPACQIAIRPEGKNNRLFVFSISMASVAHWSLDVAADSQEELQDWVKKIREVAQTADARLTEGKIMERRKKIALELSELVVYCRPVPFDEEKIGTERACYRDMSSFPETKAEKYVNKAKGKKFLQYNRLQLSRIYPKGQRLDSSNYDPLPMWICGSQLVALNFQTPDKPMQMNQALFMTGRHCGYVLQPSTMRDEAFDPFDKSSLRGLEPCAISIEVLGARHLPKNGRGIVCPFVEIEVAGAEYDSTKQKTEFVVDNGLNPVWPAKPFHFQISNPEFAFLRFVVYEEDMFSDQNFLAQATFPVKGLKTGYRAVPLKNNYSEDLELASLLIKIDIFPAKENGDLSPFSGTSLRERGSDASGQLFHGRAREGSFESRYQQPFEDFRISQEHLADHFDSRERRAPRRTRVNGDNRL

GRB7 SH2 domain = target: T20, GRB7 SH2 domain (human, UniProt Q14451 431-527); test: fluorescence polarisation; saturation binding in solution: rhodamine peptide fixed at 10 nM, protein titrated 0.002-10 uM, 20 min at room temperature; assay buffer 20 mM HEPES, 100 mM KCl, 0.1% Tween-20, 5 mM DTT, pH 7.8; apparent KD
T20 construct: GRB7, human; source: bacterial expression, purified

PTK6 SH2 domain = target: T21, PTK6 SH2 domain (human, UniProt Q13882 78-170); test: as above
T21 construct: PTK6, human; source: bacterial expression, purified
T21 sequence (Q13882 78-170): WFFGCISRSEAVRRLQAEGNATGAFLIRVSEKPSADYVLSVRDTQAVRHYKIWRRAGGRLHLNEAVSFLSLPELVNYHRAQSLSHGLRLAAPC

T2 sequence (P51451 124-220): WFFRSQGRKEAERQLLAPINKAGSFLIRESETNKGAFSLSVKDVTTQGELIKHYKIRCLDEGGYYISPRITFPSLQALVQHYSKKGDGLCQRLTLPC
T10 sequence (P07947 158-255): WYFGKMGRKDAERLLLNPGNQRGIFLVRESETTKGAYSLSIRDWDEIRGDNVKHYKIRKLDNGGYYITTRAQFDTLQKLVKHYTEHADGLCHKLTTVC
T6 sequence (P06239 127-224): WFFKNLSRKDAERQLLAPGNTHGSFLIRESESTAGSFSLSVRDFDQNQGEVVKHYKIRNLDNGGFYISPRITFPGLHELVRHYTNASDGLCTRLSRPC
T11 sequence (Q9BRG2 15-114): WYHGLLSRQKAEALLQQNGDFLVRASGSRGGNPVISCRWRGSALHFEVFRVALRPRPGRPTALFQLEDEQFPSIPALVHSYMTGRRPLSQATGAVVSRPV
T20 sequence (Q14451 431-527): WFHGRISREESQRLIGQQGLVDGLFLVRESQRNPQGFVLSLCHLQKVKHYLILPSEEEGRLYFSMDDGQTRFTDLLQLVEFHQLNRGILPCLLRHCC
T12 sequence (Q7KZ85 1325-1431): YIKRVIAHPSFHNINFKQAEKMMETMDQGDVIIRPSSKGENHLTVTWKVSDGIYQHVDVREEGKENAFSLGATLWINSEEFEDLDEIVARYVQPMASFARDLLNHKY

B1: ErbB3pY1222 phosphopeptide, rhodamine-labelled (peptide)
peptide: rhodamine-EELG[pY]EYMDVGSD
modifications: reading uncertain
notes: human ErbB3 around Tyr1222; also called labeled peptide 5; source: synthetic peptide
- Kd (SRC SH2 domain): 2330 nM

Binder: Rhodamine-PLQR[pY]SEDPTVPD (reading uncertain) [ErbB2 pY1112 phosphopeptide, rhodamine-labelled, for protein microarrays]
- Kd (BLK SH2 domain): 3220 nM and 1170 nM and 2070 nM
- Kd (ABL2 SH2 domain): 1840 nM
- Kd (SYK tandem SH2 domains): 893 nM and 803 nM
- Kd (ITK SH2 domain): 52.9 µM
- Kd (SHC1 domain construct): 1260 nM and 3060 nM
- Kd (LCK SH2 domain): 10.3 µM and 8.93 µM
- Kd (BLNK SH2 domain): 4.9 µM
- Kd (SHF SH2 domain): 2970 nM
- Kd (STAP1 SH2 domain): 50 nM
- Kd (YES1 SH2 domain): 720 nM and 1600 nM
- Kd (SH2D3A SH2 domain): 26.6 µM
- Kd (SUPT6H SH2 domain): 1040 nM
- Kd (GRAP2 SH2 domain): 7.15 µM

Binder: PDPL[pY]EVMLKCW [MET pY1313 phosphopeptide, dye-free]
- Kd (TNS3 SH2 domain): 132 nM
- Kd [1]: 56 nM
- Kd [2]: 53 nM
- Kd (VAV2 SH2 domain): 2510 nM
- Kd [3]: 1660 nM
- Kd [4]: 486 nM

B2: ErbB3pY1197 phosphopeptide, rhodamine-labelled (peptide)
peptide: Rhodamine-EDEE[pY]EYMNRRRD
modifications: reading uncertain
notes: human ErbB3 around Tyr1197; also called labeled peptide 4; source: synthetic peptide
- Kd (GRB7 SH2 domain): 130 nM
- Kd (PTK6 SH2 domain): 5.79 µM
